{"source": "patent US20100144607", "about": "(published 2010)", "note": "Bridge positions count the residues as written; N and C are the ends. Ends that are not written are not given here.", "data": [{"target": "trypsin", "assay": "other, trypsin inhibition", "units": {"Ki": "nM"}, "values": [{"binder": "VQQCSEIAGAKPC (disulfide 4-13)", "note": "[Seq04]", "Ki": 42}, {"binder": "VEQCTIIGDAKDC (disulfide 4-13)", "note": "[Seq03]", "Ki": 63.6}, {"binder": "VEQCTIIGDEKDC (disulfide 4-13)", "note": "[Seq02]", "Ki": 24}, {"binder": "IPRCRKMPGVKMC (disulfide 4-13)", "note": "[Seq01]", "Ki": 22.5}, {"binder": "LHRCDKIADAKPC (disulfide 4-13)", "note": "[Seq05]", "Ki": 44}, {"binder": "IPRCRKMPGVKMC (disulfide 4-13; not fully specified)", "note": "[Seq09]", "Ki": 21.8}, {"binder": "IPRCRAMPGVKMC (disulfide 4-13)", "note": "[Seq06]", "Ki": 24.2}, {"binder": "IPRCRKMPGVKMC (disulfide 4-13; not fully specified)", "note": "[Seq08]", "Ki": 24.8}, {"binder": "IPRCRKMPGVKMC (disulfide 4-13; not fully specified)", "note": "[Seq07]", "Ki": 20}]}]}
